Read-outs that look alike come from different tables or passages of the source.

By Kd is commonly meant the concentration at which binding is half-saturated. Lower therefore signals a tighter complex.

What all share (assay): BLI
For experiment [1], the target named is T1, SARS-CoV-2 spike ectodomain (UniProt P0DTC2 14-1213).
For experiment [2], the target named is T1, SARS-CoV-2 spike ectodomain. This is another data set of the same source.
For experiment [3] the target is unchanged. This is another data set of the same source.

B1: Fab 419 (Fab, V domains shown)
VH: QVQLVQSGAEVKKPGASVKVSCKASGYTFTSYYMHWVRQAPGQGLEWMGIINPSGGSTSYAQKFQGRVTMTRDTSTSTVYMELSSLRSEDTAVYYCARDWTQSSGYDYYYGLDVWGQGTTVTVSS
VL: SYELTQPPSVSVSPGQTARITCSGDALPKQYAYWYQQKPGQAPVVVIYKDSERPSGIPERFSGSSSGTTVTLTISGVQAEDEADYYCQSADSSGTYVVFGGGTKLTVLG
In turn, B1 registered a Kd in experiment [1] of 365 nM.

B2: Fab 483 (Fab, V domains shown)
VH: QVQLQESGPGLVKPSETLSLTCTVSGGSISSYYWSWIRQPPGKGLEWIGYIYYSGSTNYNPSLKSRVTISVDTSKNQFSLKLSSVTAADTAVYYCARAPEEKSSEIGELVGWGWFDPWGQGTLVTVSS
VL: not shown
With B2, binding in experiment [2] was characterised by a dissociation constant (Kd) of 23.1 nM.

B3: Fab 494 (Fab, V domains shown)
VH: EVQLVESGGGLVQPGGSLRLSCAASGFTVSSNYMSWVRQAPGKGLEWVSVIYSGGSTFYADSVKGRFTISRDNSKNTLYLQMNSLRAEDTAVYYCARDSGDQLLDYWGQGTLVTVSS
VL: DIQLTQSPSFLSASVGDRVTITCRASQGISSYLAWYQQKPGKAPKLLIYAASTLQSGVPSRFSGSGSGTEFTLTISSLQPEDFATYYCQQLNSYPPFTFGPGTKVDIKR
B3 had a Kd in experiment [3] of 5.9 nM.

These data come from patent US20210292393A1 (published 2021).
